Assay results reported in patent publication US11180777B2, “Cell fraction and method of generating a cell fraction containing a protein of interest” (Corning Incorporated, priority 2015, dated 2021).
Each block holds one molecule with its values, some of them ahead of it.

Columns and labels:
Aldehyde Oxidase (AO) = biological target: T1, Aldehyde Oxidase (AO) (Homo sapiens, UniProt Q06278); assay: AO assay with probe substrate phthalazine (HPLC); type: biochemical; conditions: rAO prepared with transfected HEK293 cells
T1 construct: made in house; host or cells: HEK293 cells, transfected by electroporation; supernatant (soluble fraction) after the 37,000 rpm spin
T1 sequence (Q06278 1-1338): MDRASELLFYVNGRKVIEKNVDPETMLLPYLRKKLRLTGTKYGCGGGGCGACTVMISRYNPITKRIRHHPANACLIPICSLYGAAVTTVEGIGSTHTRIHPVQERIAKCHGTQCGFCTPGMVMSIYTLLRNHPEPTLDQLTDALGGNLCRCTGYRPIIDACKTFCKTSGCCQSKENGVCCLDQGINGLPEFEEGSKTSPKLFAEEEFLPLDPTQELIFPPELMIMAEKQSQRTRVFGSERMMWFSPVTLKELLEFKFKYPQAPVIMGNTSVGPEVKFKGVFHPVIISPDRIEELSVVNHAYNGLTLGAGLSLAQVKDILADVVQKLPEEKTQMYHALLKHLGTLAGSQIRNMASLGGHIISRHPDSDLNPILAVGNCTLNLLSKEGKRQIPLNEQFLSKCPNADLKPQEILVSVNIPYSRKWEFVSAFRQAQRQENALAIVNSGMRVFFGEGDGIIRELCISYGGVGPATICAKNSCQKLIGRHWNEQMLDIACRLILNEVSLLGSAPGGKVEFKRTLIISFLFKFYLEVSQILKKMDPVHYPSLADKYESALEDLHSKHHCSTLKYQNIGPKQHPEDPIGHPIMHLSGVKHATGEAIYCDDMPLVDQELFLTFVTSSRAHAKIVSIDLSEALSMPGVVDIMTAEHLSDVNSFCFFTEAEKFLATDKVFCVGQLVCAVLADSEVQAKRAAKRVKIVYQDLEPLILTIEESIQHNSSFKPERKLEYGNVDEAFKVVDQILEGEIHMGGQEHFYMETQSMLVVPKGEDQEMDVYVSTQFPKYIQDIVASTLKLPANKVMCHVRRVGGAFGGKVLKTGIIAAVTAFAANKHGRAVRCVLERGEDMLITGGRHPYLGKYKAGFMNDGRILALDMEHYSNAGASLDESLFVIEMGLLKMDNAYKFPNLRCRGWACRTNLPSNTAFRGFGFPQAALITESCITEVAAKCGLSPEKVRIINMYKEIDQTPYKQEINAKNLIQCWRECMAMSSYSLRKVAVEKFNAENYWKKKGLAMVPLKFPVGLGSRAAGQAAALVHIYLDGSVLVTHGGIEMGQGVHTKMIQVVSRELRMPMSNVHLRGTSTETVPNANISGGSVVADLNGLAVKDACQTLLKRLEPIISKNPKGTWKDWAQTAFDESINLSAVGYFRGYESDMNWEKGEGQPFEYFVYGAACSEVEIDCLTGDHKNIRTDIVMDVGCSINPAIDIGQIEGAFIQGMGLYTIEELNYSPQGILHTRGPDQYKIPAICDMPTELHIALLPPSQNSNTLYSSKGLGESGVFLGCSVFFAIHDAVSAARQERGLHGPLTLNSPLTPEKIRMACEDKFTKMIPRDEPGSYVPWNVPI
Method: (§1) The recombinant AO and UGT1A1 enzymes were prepared as following. Briefly, the cells pellets obtained from the cell recovery step were washed once with phosphate buffered saline (PBS) and centrifuged at 1500 rpm for 10 min at 4° C. The resulting pellet was diluted with appropriate amount of 0.1 M potassium phosphate buffer, and transferred into Dounce Homogenizer followed with 10 stokes. The cell lysate was centrifuged at 2600 rpm for 10 minutes at 4° C. The supernatant was transferred to a new set of centrifuge tube and spun at 37,000 rpm for 15 minutes at 4° C. For recombinant AO, the supernatant (soluble fraction) was aliquoted and stored at −80° C. until use. For UGT1A1 microsomes, the pellet was resuspended in an appropriate amount of 0.1M Tris buffer and homogenized with a Dounce homogenizer with 10 strokes. The UGT1A1 microsomes were aliquoted and stored at −80° C. until use.
AO assays are carried out at 37° C. in 25 mM potassium phosphate buffer (pH7.4) containing 0.1 mM EDTA. 170 μL assay buffer was mixed with 20 μL 1 mM phthalazine and prewarmed to 37° C. in heat block. The reaction is initiated with 10 μL 5 mg/mL AO sample. The cap needs to be opened for oxygen circulation. After incubation, the reaction was stopped by the addition of 100 ul 94% acetonitrile/6% glacial acetic acid. The reaction mix was centrifuged (10,000×g) for 3 minutes and supernatant was analyzed on HPLC.

UGT1A1 = biological target: T2, UGT1A1 (Homo sapiens, UniProt P22309); assay: UGT1A1 assay (beta-estradiol glucuronidation, HPLC); type: biochemical; conditions: electroporation method versus BEVs system
T2 construct: made in house; host or cells: HEK293 cells, electroporated with UGT1A1 cDNA; microsomes (membrane pellet)
T2 sequence (P22309 26-533): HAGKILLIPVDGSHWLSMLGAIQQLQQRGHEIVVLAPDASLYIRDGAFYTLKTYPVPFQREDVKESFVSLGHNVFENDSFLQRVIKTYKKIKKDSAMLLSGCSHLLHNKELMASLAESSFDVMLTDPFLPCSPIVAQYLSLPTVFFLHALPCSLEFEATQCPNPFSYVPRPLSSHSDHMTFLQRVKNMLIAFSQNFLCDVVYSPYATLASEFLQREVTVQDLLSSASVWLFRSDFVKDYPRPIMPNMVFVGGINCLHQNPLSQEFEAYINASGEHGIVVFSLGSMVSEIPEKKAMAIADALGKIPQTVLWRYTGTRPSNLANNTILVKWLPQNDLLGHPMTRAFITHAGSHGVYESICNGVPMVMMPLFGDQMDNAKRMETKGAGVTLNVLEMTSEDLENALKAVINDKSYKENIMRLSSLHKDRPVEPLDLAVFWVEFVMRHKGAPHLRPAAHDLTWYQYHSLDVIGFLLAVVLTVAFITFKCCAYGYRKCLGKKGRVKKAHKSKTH
Method: as §1
A 0.2 ml reaction mixture containing 1.0 mg/ml protein, 2 mM uridine diphosphoglucuronic acid (UDPGA), 10 mM magnesium chloride, 0.025 mg/ml alamethicin and 150 uM beta-estradiol in 50 mM Tris (pH 7.5) was incubated at 37° C. for 30 minutes. After incubation, the reaction was stopped by the addition of 50 ul 94% acetonitrile/6% glacial acetic acid. The reaction mix was centrifuged (10,000×g) for 3 minutes and supernatant was analyzed on HPLC.

Molecule: Aldehyde Oxidase (AO): recombinant Phase 1 drug metabolizing enzyme Aldehyde Oxidase prepared with transfected HEK293 cells (soluble fraction)
AO kinetics with phthalazine (Aldehyde Oxidase (AO)): exhibited standard michaelis-mention kinetics curve

UGT1A1 activity relative to UGT1A1 expressed with the BEVs system (UGT1A1): 5 ×
B1: UGT1A1: UGT1A1 expressed using the electroporation method (HEK293 microsomes) (protein, UniProt P22309 26-533, looked up)
UDP-glucuronosyltransferase …: T2 sequence (P22309 26-533)
